Here are results for two molecules from US20120277286A1, “COMPOSITIONS AND METHODS FOR THE TREATMENT OR PREVENTION OF MITOCHONDRIAL DISEASES” (The Government of the USA, as represented by the Secretary, …, priority 2009, published 2012).

Assay [1] relates to M17 human neuroblastoma cells. Kind of assay: YFP-Parkin recruitment to mitochondria in M17 cells. The conditions noted are these: M17 cells stably transduced with control shRNA (CCCP line) or PINK1 shRNA, 10 μM CCCP, 3 hours. The class given is cell-based. From the text: HeLa YFP-Parkin, PINK1+/+ SV40 transformed MEFs cells, PINK1−/− SV40 transformed MEF, M17 neuroblastoma control shRNA, M17 neuroblastoma PINK1, and Mfn1/2−/− MEF cell lines have been described previously (Narendra (2008) J Cell Biol 183: 795-803). PINK1+/+ and PINK1−/− primary MEFs were isolated from embryos using a standard protocol (Gautier (2008) Proc Natl Acad Sci USA 105: 11364-11369). Parkin+/+ and Parkin−/− transformed MEFs were created by isolation of primary cells from embryos of B6.129S4-Park2tm1Shn/J mice (Jackson Labs), using a standard protocol (Gautier (2008) Proc Natl Acad Sci USA 105: 11364-11369), followed by retroviral transduction of SV40 (Applied Biological Materials, Inc.). YFP-Parkin, YFPParkin mutants, mCherry-Parkin, PINK1-YFP, PINK1 KD-YFP, PINK1 Δ1-110-YFP, and Opa3-PINK1 Δ1-110-YFP are in C1 or N1 Clontech vectors. PINK1WT-V5, PINK1 KD-V5, and PINK1 Δ1-156-V5 are in pDest40 vector (Invitrogen). PINK1 patient mutations are in pLenti-V5 vector (Invitrogen). PINK1-myc is in a pCMBTNT vector (Promega).
Confocal microscopy of fixed samples, scoring of Parkin recruitment and Parkininduced mitophagy, and live cell imaging were performed as described previously (Narendra (2008) J Cell Biol 183: 795-803). Experiments in Mfn1/2 null cells were performed as described previously with minor modifications. […]

A further assay concerns M17 cells. Description: Mitochondrial mass by Mitotracker Green staining. The class given is cell-based, human. The settings on record: control shRNA (CCCP line) or PINK1 shRNA. As to the method: To test whether PINK1 expression affects mitochondrial turnover in the presence of endogenous levels of Parkin, the control shRNA and PINK1 shRNA M17 cells (which express moderate levels of Parkin) were treated with DMSO or CCCP for 24 hours and measured their relative mitochondrial mass by Mitotracker Green (MTG) staining and flow cytometry. MTG, a sensitive measure of mitochondrial mass, stains mitochondrial lipid in a membrane potential independent manner and has been used to measure mitochondrial mass of depolarized mitochondria previously (Hristova et al., J Biol Chem. In press; Whitworth et al., Dis Model Mech 1: 168-174, 2008). […] To more directly assay mitochondrial turnover in control and PINK1 shRNA M17 cells, the cells were pulsed with MTG and loss of MTG intensity was tracked at 0, 16, and 24 hours in the presence of CCCP. Consistent with the hypothesis that endogenous PINK1 promotes the degradation of depolarized mitochondria, Mitotracker Green intensity decreased more slowly in PINK1 shRNA cells when compared with control shRNA cells, treated with CCCP (0.58±0.07 vs. 0.33±0.07 relative MTG intensity at 24 hours) (FIG. 12F).

Assay [2] concerns HeLa cells. Description: Transmission electron microscopy of mitochondria and lysosomes. The class given is cell-based. The settings on record: 10 μM CCCP 48 hours. On the procedure:
HeLa cells transfected with YFP-Parkin for 18 hours were sorted for YFP using FACS. After sorting, 99.7% of cells contained a detectable YFP signal. After overnight culture, cells were treated with 10 μM CCCP for 48 h, fixed with 4% glutaraldehyde in 0.1 N sodium-cacodylate at room temperature for 1 hour, and processed for electron microscopy using a standard protocol. 22 cells expressing Parkin and 22 untransfected cells were randomly selected and imaged at 8,000× magnification by transmission electron microscope (200CX; JEOL Ltd.) and a digital camera system (XR-100; Advanced Microscopy Techniques, Corp.). The area of cytoplasm in each cell was calculated using National Institutes of Health ImageJ.

The subject of assay [3] is HeLa cells. Kind of assay: Parkin in mitochondria-rich membrane fraction, immunoblot. The conditions noted are these: HeLa, CCCP 1 hr, Western blotting. The class given is cell-based.
Excerpt: (§1) For PINK1 experiments, cells were fractionated using the Mitochondria Isolation Kit (Pierce), according to manufacturer's specifications with slight modifications. To isolate integral membrane proteins, membrane fractions obtained as above were carbonate extracted with 0.1M Na2CO3 fresh cold buffer and membranes were pelleted, as described in the supplemental methods. For Parkin experiments, cells were fractionated as described previously, with minor modifications described in the supplemental methods (Narendra (2008) J Cell Biol 183: 795-803). The following primary antibodies were used: anti-Parkin (PRK8) monoclonal (Santa Cruz), anti-Tom20 polyclonal (Santa Cruz), anti-cytochrome c monoclonal (BD Biosciences), anti-PINK1 polyclonal (Novus Biologicals), anti-VDAC monoclonal (Calbiochem), anti-GAPDH polyclonal (Sigma-Aldrich), anti-Tubulin monoclonal (Sigma-Aldrich), anti-V5 monoclonal (Invitrogen), anti-GFP polyclonal (Invitrogen).
as §1, with “with slight modifications described in the supplemental methods. To isolate” for “with slight modifications. To isolate”, “minor modifications detailed in the” for “minor modifications described in the”, “supplemental methods (Narendra (2008) J Cell Biol 183: 795-803). The protease protection assay was performed as described previously (Chen (2005) J Biol Chem 280: 26185-26192). Cells were fixed and immunostained as described previously (Narendra (2008)” for “supplemental methods (Narendra (2008)”, “anti-GFP polyclonal (Invitrogen), anti-TIM23 monoclonal (BD Biosciences), and anti-Hsp60 monoclonal (Stressgen).” for “anti-GFP polyclonal (Invitrogen).”
(In general: In western blotting, separated proteins are transferred to a membrane and probed.)

Take `N#CC(C#N)=NNc1cccc(Cl)c1` [CCCP, carbonyl cyanide m-chlorophenylhydrazone]: the “cells with mitochondrial YFP-Parkin” value in assay [1] was 67.3±3.1%. Further, the “relative MTG intensity” value with M17 cells (M17 cells pulsed with MTG, CCCP, at 24 hours) came to 0.33±0.07. Besides, the “change in mitochondrial mass, CCCP vs. DMSO” value in the assay on M17 cells (M17 cells, 24 hours, MTG flow cytometry) was −22.4±12.6%.

B1: YFP-Parkin: YFP-tagged Parkin E3 ligase expressed from a transfected vector (protein, UniProt O60260 1-465, looked up)
E3 ubiquitin-protein ligase …: MIVFVRFNSSHGFPVEVDSDTSIFQLKEVVAKRQGVPADQLRVIFAGKELRNDWTVQNCDLDQQSIVHIVQRPWRKGQEMNATGGDDPRNAAGGCEREPQSLTRVDLSSSVLPGDSVGLAVILHTDSRKDSPPAGSPAGRSIYNSFYVYCKGPCQRVQPGKLRVQCSTCRQATLTLTQGPSCWDDVLIPNRMSGECQSPHCPGTSAEFFFKCGAHPTSDKETSVALHLIATNSRNITCITCTDVRSPVLVFQCNSRHVICLDCFHLYCVTRLNDRQFVHDPQLGYSLPCVAGCPNSLIKELHHFRILGEEQYNRYQQYGAEECVLQMGGVLCPRPGCGAGLLPEPDQRKVTCEGGNGLGCGFAFCRECKEAYHEGECSAVFEASGTTTQAYRVDERAAEQARWEAASKETIKKTTKPCPRCHVPVEKNGGCMHMKCPQPQCRLEWCWNCGCEWNRVCMGDHWFDV
modifications: YFP fusion
notes: YFP-tagged Parkin E3 ligase expressed from a transfected vector
B1: the “cells with either few or no detectable mitochondrial structures” value in the assay with HeLa cells [2] (electron microscopy) was 90%. In the assay on HeLa cells [2] (n=22 cells), the “lysosomes per cell area” value was found to be 0.38±0.23 lysosomes/μm 2 cell area and the “mitochondria per area of cytoplasm” value was 0.074±0.21 mitochondria/μm 2 of cytoplasm. The “translocation of YFP-Parkin variant to mitochondria-rich membrane fraction” value in the assay with HeLa cells [3] is listed as “increase”.
